From patent US20160145323A1 (INTEGRAL MOLECULAR, published 2016)

Tests used:
[1] = molecular target: CHIKV E2/E1 envelope (S27 strain) displayed on particles (intact CHIKV VLPs, retroviral VLPs, pseudo (Chikungunya virus (S27 strain)) (UniProt P0DOK1))
[2] = molecular target: CHIKV E2/E1 envelope (S27 strain) displayed on particles (intact CHIKV VLPs, retroviral VLPs, pseudo (Chikungunya virus (S27 strain)) (UniProt P0DOK1)); test: cell-based or functional assay
[3] = molecular target: CHIKV envelope mutant E2-I121A expressed on HEK-293T cells (Chikungunya virus (S27 strain)) (UniProt P0DOK1)
[4] = molecular target: CHIKV envelope mutant E2-K66A expressed on HEK-293T cells (Chikungunya virus (S27 strain)) (UniProt P0DOK1)
[5] = molecular target: CHIKV envelope mutant E2-W64A expressed on HEK-293T cells (Chikungunya virus (S27 strain)) (UniProt P0DOK1)
[6] = molecular target: CHIKV envelope mutant E2-R80A expressed on HEK-293T cells (Chikungunya virus (S27 strain)) (UniProt P0DOK1)
[7] = molecular target: CHIKV envelope mutant E2-E24A expressed on HEK-293T cells (Chikungunya virus (S27 strain)) (UniProt P0DOK1)
[8] = molecular target: CHIKV envelope mutant E2-G55A expressed on HEK-293T cells (Chikungunya virus (S27 strain)) (UniProt P0DOK1)
[9] = molecular target: CHIKV envelope mutant E2-I121A expressed on HEK-293T cells (Chikungunya virus (S27 strain)) (UniProt P0DOK1); remark: listed apart in the source
[10] = molecular target: CHIKV envelope mutant E2-W64A expressed on HEK-293T cells (Chikungunya virus (S27 strain)) (UniProt P0DOK1); remark: listed apart in the source
[11] = molecular target: CHIKV envelope mutant E2-R80A expressed on HEK-293T cells (Chikungunya virus (S27 strain)) (UniProt P0DOK1); remark: listed apart in the source
[12] = molecular target: CHIKV envelope mutant E2-E24A expressed on HEK-293T cells (Chikungunya virus (S27 strain)) (UniProt P0DOK1); remark: listed apart in the source
[13] = molecular target: CHIKV envelope mutant E2-A162S (Chikungunya virus (S27 strain)) (UniProt P0DOK1)
[14] = molecular target: CHIKV envelope mutant E2-G55A expressed on HEK-293T cells (Chikungunya virus (S27 strain)) (UniProt P0DOK1); remark: listed apart in the source
[15] = molecular target: T1, CHIKV E2/E1 envelope (S27 strain) displayed on particles (intact CHIKV VLPs, retroviral VLPs, pseudo (Chikungunya virus (S27 strain), UniProt P0DOK1 326-748; Q8JUX5 810-1248)
[16] = molecular target: T1, CHIKV E2/E1 envelope (S27 strain) …; test: cell-based or functional assay
[17] = molecular target: CHIKV envelope mutant E2-D117A expressed on HEK-293T cells (Chikungunya virus (S27 strain), UniProt P0DOK1 326-748; Q8JUX5 810-1248)
[18] = molecular target: CHIKV envelope mutant E2-Y69A expressed on HEK-293T cells (Chikungunya virus (S27 strain), UniProt P0DOK1 326-748; Q8JUX5 810-1248)
[19] = molecular target: CHIKV envelope mutant E2-T116A expressed on HEK-293T cells (Chikungunya virus (S27 strain), UniProt P0DOK1 326-748; Q8JUX5 810-1248)
[20] = molecular target: CHIKV envelope mutant E2-V113A expressed on HEK-293T cells (Chikungunya virus (S27 strain), UniProt P0DOK1 326-748; Q8JUX5 810-1248)
[21] = molecular target: CHIKV envelope mutant E2-F84A expressed on HEK-293T cells (Chikungunya virus (S27 strain), UniProt P0DOK1 326-748; Q8JUX5 810-1248)
[22] = molecular target: CHIKV envelope mutant E2-G114A expressed on HEK-293T cells (Chikungunya virus (S27 strain), UniProt P0DOK1 326-748; Q8JUX5 810-1248)

B1: MAb CAP4A-E7 (IM-CKV063), human IgG1 (antibody, V domains shown)
VH: QVQLVQSGAEVKKPGSAVKVSCKASGGTLRKYAISWLRQAPGQGLEWMGGIIPIFGTANYAQKFQGRVTITADESTTTPYTTTPYTSTAYIELTSLRSEDTAVYYCARDLGPLTGYSYSYFDYWGQGTLVTVSS
VL: EIVMTQSPATLSLSPGERATLSCRASQSVSSYLAWYQQKPGQAPRLLIYDASNRATGIPDRFSGSGSGTDFTLTISRLEPEDFAVYYCQQYANSRRTFGQGTKVEIT
Binder B1 has a Kd [1] of 0.32 nM, a koff [1] of 9.4e-05 s⁻¹ and a kon [1] of 290000 M⁻¹ s⁻¹. It also gave an IC50, neutralization of reporter viruses pseudotyped with CHIKV S27 E2/E1 [2] of 0.0074 µg/mL and a PRNT50, live CHIKV S27 on Vero cells [2] of 11 ng/mL.

B2: purified Fab CAP4A-E7 (Fab, V domains shown)
VH: QVQLVQSGAEVKKPGSAVKVSCKASGGTLRKYAISWLRQAPGQGLEWMGGIIPIFGTANYAQKFQGRVTITADESTTTPYTTTPYTSTAYIELTSLRSEDTAVYYCARDLGPLTGYSYSYFDYWGQGTLVTVSS
VL: EIVMTQSPATLSLSPGERATLSCRASQSVSSYLAWYQQKPGQAPRLLIYDASNRATGIPDRFSGSGSGTDFTLTISRLEPEDFAVYYCQQYANSRRTFGQGTKVEIT
With B2 the binding relative to wild-type E2/E1 (% of wild-type) [3] was less than 20, the binding relative to wild-type E2/E1 (% of wild-type) [4] was less than 20 and the binding relative to wild-type E2/E1 (% of wild-type) [5] was less than 20. It also gave a binding relative to wild-type E2/E1 (% of wild-type) [6] of less than 20, a binding relative to wild-type E2/E1 (% of wild-type) [7] of less than 20 and a binding relative to wild-type E2/E1 (% of wild-type) [8] of less than 20. The percent wild-type reactivity (percent wild-type) [9] was 2, the percent wild-type reactivity (percent wild-type) [10] was 1 and the percent wild-type reactivity (percent wild-type) [11] was 3. The percent wild-type reactivity (percent wild-type) [12] was 15, the percent wild-type reactivity (percent wild-type) [13] was 37 and the percent wild-type reactivity (percent wild-type) [14] was 12.

B3: MAb CAP5A-F6 (IM-CKV065), human IgG1 (antibody, V domains shown)
VH: EVQLVQSGPEVKKPGASVKVSCKASGYTFSNYGVSWVRQAPGQGLEWLGWISAYNGNTKYAQKFEGRVTLTTDSLSDTAYMELRSLRSDDTAVYYCVRDDRSGYYYLPFDFWGQGTLVTVSS
VL: DIQLTQSPSFLSASVGDRVTITCRASQGISSYLAWYQQKPGKAPKLLIFAASTLQSGVPSRFSGSGSGTDYTLTISSLQPEDFATYYCQQSYSNPTFGQGTRLEIK
B3 gave a Kd [15] of 9.3 nM, a koff [15] of 0.0015 s⁻¹ and a kon [15] of 160000 M⁻¹ s⁻¹. The “IC50, neutralization of reporter viruses pseudotyped with CHIKV S27 E2/E1” value [16] was 0.17 µg/mL.

B4: CAP101A-E8 (IM-CKV056), converted to full length human IgG (antibody, V domains shown)
VH: QVQLVQSGGGVVQPGRSLRLSCAASGFTLSTYGLHWVRQAPGKGLEWVAVISYDGTNKYYADSVKGRFTVSWDNSKNTLYLQMNSLRAEDTAVYYCAKDLASSSWSDYYHYGMDVWGQGTMVTVSS
VL: DIQLTQSPSTLSASVGDRITITCRATQSIGSWLAWYQQKPGKAPKLLIYKASSLESGVPSRFSGSGSATEFTLTISGLQPEDFATYYCQQLKSFPLTFGPGTKVDIQ
In the case of B4, the “reactivity relative to WT CHIKV env” value [17] is reported as < 20 % of WT, the “reactivity relative to WT CHIKV env” value [18] is reported as < 20 % of WT and the “reactivity relative to WT CHIKV env” value [19] is reported as < 20 % of WT. The “reactivity relative to WT CHIKV env” value [20] was < 20 % of WT, the “reactivity relative to WT CHIKV env” value [21] was < 20 % of WT and the “reactivity relative to WT CHIKV env” value [22] was < 20 % of WT.
